Test results published in US20260209386A1 (MYTHIC THERAPEUTICS, published 2026).

T1: Human PTK7 Protein, His Tag, Acro Biosystems (human, UniProt Q13308 31-704)
T1 construct: Bought recombinant protein; also called CCK4; not shown: His tag
T1 sequence: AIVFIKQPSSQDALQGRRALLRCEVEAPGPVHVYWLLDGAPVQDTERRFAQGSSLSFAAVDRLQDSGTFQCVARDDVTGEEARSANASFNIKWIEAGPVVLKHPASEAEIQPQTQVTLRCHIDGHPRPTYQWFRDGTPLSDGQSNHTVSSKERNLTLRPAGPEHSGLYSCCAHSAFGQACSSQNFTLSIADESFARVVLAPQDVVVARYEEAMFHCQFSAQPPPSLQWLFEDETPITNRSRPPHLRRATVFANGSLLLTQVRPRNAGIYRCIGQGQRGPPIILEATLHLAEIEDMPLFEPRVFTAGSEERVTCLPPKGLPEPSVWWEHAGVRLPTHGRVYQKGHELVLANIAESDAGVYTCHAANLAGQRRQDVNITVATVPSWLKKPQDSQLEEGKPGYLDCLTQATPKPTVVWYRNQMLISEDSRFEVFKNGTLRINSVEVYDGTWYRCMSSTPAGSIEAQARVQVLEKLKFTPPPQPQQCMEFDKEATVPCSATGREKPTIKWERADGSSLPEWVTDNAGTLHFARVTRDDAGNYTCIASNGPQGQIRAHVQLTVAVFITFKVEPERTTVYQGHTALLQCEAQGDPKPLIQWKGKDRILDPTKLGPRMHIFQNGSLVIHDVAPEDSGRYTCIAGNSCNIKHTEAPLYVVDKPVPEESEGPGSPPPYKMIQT

T2: Human PTK7 Protein, His Tag (Acro Biosystems) (human, UniProt Q13308 31-704)
T2 construct: Bought His-tagged protein; also called CCK4; not shown: His tag
T2 sequence: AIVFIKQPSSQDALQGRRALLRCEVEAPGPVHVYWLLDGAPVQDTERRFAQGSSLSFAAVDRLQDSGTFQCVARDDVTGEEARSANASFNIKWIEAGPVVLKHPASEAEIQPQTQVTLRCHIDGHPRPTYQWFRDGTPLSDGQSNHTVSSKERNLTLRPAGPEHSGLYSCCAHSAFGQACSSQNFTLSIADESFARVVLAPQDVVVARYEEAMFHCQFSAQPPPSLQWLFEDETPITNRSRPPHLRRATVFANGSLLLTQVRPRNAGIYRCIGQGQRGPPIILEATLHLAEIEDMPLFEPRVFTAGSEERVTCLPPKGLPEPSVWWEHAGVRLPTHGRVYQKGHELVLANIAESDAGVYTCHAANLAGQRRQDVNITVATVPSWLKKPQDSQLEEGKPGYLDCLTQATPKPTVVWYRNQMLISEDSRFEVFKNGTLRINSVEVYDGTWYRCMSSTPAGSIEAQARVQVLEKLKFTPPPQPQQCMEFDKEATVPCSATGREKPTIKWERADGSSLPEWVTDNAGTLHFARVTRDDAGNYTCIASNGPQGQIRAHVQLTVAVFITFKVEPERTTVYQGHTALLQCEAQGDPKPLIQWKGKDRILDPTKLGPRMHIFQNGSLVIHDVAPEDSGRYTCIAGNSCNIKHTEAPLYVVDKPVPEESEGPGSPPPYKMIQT


How the values were obtained:
[1] = target: T1, Human PTK7 Protein, His Tag, Acro …; test: BLI, anti-human Fc capture, 50 nM PTK7; 1 = pH dependent binding relative to parent
[2] = target: T2, Human PTK7 Protein, His Tag (Acro …); test: BLI (Octet), antibody on anti-human Fc sensor, 50 nM PTK7; grade 1 = pH dependent binding relative to parent

binding result [1]	binding result [2]	Binder
binds	–	MYT11289 (antibody, V domains shown) VH: EVQLVESGGGLVQPGGSLRLSCTASGIDLSRYSMGWVRQAPGKGLEWVGIISYGGSTYYASWAKGRFTISRDTSKNTVYLQMNSLRAEDTAVYFCARVGYPGYSHYGYAFDAFDPWGQGTLVTVSS VL: EIVMTQSPSTLSASVGDRVIITCQSSKSVYNDNWLSWYQQKPGKAPKLLIYGASTLASGVPSRFSGSGSGAEFTLTISSLQPDDFATYYCAGGYSSSSDNGFGQGTKLTVL
binds	–	MYT11322 (antibody, V domains shown, MYT9792 variant, His at VL 57 (L2 06)) VH: EVQLVESGGGLVQPGGSLRLSCTASGIDLSRYSMGWVRQAPGKGLEWVGIISYGGSTYYASWAKGRFTISRDTSKNTVYLQMNSLRAEDTAVYFCARVGYPGYSGYGYAFDAFDPWGQGTLVTVSS VL: EIVMTQSPSTLSASVGDRVIITCQSSKSVYNDNWLSWYQQKPGKAPKLLIYGASTLHSGVPSRFSGSGSGAEFTLTISSLQPDDFATYYCAGGYSSSSDNGFGQGTKLTVL
binds	–	MYT11309 (antibody, V domains shown, MYT9792 variant, His at VL 29 (L1 06)) VH: EVQLVESGGGLVQPGGSLRLSCTASGIDLSRYSMGWVRQAPGKGLEWVGIISYGGSTYYASWAKGRFTISRDTSKNTVYLQMNSLRAEDTAVYFCARVGYPGYSGYGYAFDAFDPWGQGTLVTVSS VL: EIVMTQSPSTLSASVGDRVIITCQSSKSHYNDNWLSWYQQKPGKAPKLLIYGASTLASGVPSRFSGSGSGAEFTLTISSLQPDDFATYYCAGGYSSSSDNGFGQGTKLTVL
–	binds	MYT11093 (antibody, V domains shown, MYT9361 LC variant) VH: EVQLVESGGGLVQPGGSLRLSCTASGLSLSSYWMSWVRQAPGKGLEWVGVISAGGNTYYANWAKGRFTISRDTSKNTVYLQMNSLRAEDTAVYFCARGDDGYTNAAYVSNLWGQGTLVTVSS VL: EIVMTQSPSTLSASVGDRVIITCQASQSISSWLSWYQQKPGKAPKLLIYKASTLASGVPSRFSGSGSGAEFTLTISSLQPDDFATYYCQSYHDSTTIAFGQGTKLTVL
